Measured values reported in IntAct's records for PubMed 20696938.

B1: DNA topoisomerase 4 subunit A (Escherichia coli (strain K12)), P0AFI2 (parent)
chain: MSDMAERLALHEFTENAYLNYSMYVIMDRALPFIGDGLKPVQRRIVYAMSELGLNASAKFKKSARTVGDVLGKYHPHGDSACYEAMVLMAQPFSYRYPLVDGQGNWGAPDDPKSFAAMRYTESRLSKYSELLLSELGQGTADWVPNFDGTLQEPKMLPARLPNILLNGTTGIAVGMATDIPPHNLREVAQAAIALIDQPKTTLDQLLDIVQGPDYPTEAEIITSRAEIRKIYENGRGSVRMRAVWKKEDGAVVISALPHQVSGARVLEQIAAQMRNKKLPMVDDLRDESDHENPTRLVIVPRSNRVDMDQVMNHLFATTDLEKSYRINLNMIGLDGRPAVKNLLEILSEWLVFRRDTVRRRLNYRLEKVLKRLHILEGLLVAFLNIDEVIEIIRNEDEPKPALMSRFGLTETQAEAILELKLRHLAKLEEMKIRGEQSELEKERDQLQGILASERKMNNLLKKELQADAQAYGDDRRSPLQEREEAKAMSEHDMLPSEPVTIVLSQMGWVRSAKGHDIDAPGLNYKAGDSFKAAVKGKSNQPVVFVDSTGRSYAIDPITLPSARGQGEPLTGKLTLPPGATVDHMLMESDDQKLLMASDAGYGFVCTFNDLVARNRAGKALITLPENAHVMPPVVIEDASDMLLAITQAGRMLMFPVSDLPQLSKGKGNKIINIPSAEAARGEDGLAQLYVLPPQSTLTIHVGKRKIKLRPEELQKVTGERGRRGTLMRGLQRIDRVEIDSPRRASSGDSEE
partner: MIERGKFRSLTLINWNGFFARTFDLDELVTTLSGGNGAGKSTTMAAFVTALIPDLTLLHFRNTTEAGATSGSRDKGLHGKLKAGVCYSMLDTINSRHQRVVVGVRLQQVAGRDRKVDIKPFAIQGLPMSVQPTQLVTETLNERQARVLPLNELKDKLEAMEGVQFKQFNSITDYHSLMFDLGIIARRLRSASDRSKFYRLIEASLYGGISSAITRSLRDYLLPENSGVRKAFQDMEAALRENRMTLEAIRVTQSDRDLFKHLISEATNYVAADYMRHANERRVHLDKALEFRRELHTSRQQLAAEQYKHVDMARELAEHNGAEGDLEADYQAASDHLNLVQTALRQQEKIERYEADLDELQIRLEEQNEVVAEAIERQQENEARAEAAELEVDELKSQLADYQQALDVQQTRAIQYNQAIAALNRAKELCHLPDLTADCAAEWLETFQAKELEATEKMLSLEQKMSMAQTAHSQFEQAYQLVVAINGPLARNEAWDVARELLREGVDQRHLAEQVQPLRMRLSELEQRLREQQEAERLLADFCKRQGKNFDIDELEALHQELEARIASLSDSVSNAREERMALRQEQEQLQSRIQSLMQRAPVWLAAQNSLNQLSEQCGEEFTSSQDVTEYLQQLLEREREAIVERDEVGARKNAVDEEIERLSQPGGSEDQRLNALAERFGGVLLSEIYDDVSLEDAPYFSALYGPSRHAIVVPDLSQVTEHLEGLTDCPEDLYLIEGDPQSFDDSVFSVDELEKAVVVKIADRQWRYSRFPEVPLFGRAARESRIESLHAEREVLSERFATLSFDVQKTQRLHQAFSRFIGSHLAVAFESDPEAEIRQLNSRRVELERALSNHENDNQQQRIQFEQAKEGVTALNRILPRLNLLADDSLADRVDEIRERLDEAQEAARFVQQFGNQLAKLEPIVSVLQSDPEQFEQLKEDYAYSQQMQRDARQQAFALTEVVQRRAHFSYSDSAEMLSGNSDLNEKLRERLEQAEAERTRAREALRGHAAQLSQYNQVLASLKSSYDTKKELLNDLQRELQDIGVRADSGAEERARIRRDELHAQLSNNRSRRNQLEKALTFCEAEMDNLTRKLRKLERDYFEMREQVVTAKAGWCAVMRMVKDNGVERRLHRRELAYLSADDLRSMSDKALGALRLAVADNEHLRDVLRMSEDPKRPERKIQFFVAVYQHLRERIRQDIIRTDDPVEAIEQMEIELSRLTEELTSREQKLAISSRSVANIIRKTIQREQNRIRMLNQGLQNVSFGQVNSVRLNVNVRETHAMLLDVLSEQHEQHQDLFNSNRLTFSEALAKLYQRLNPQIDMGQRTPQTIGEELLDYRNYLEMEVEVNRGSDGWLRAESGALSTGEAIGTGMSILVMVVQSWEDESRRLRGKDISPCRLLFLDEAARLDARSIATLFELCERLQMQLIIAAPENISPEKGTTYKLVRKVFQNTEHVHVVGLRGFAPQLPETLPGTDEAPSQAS

Variants of: B1
Details: with mukb_ecoli mukB

Effect of a mutation on the interaction, disrupting interaction:
R705E;R729A
R729A
R705E
